Laboratory results reported in patent US20140045930A1, “ASSAY FOR ARGINYL HYDROXYLASE ACTIVITY” (priority 2011, published 2014).

Key:
Format in all cases: biochemical
YcfD [1] = target: T1, YcfD (Escherichia coli, UniProt P27431); experiment: NMR analyses of YcfD-catalysed hydroxylation; details: for hydroxylation by YcfD observed by 1H NMR: 1H NMR analyses (data not shown)
T1 construct: hexa-His (N); made in house; host or cells: E. coli BL21 (DE3), pET28a
T1 sequence (P27431 1-373): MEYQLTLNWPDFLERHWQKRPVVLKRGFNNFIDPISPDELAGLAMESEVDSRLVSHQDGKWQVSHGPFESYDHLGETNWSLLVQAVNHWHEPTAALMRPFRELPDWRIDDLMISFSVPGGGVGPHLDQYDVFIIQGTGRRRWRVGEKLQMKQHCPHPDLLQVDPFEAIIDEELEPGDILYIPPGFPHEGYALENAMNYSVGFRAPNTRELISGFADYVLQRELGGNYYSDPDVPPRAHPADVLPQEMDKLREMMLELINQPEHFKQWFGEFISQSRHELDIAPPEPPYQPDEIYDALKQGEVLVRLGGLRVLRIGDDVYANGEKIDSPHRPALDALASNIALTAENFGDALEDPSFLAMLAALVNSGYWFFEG
From the text: NMR-analyses used a Bruker AVIII 700 system equipped with an inverse TCI cryoprobe optimised for ^1H observation and running TOPSPIN 2 software. Chemical shifts are reported in ppm relative to D2O (δH 4.72); the deuterium signal was used as an internal lock signal and the HDO signal was reduced by presaturation where necessary.
(§1) Using a mass spectrometric (MS) based assay, we then screened YcfD with 21 known peptide fragments of substrates for three human 2OG dependent hydroxylases (PHD2, FIH, JMJD6), that encompasses known hydroxylation sites, including the HIF-1α N- and C-terminal oxygen dependent degradation domain (prolyl-hydroxylation), the HIF-1α C-terminal transcriptional activation domain (asparaginyl hydroxylation), ankyrin repeat domain peptides (asparaginyl hydroxylation), splicing regulatory protein fragments (lysyl5-hydroxylation), and collagen proyl-hyroxylase peptides. […] We then screened other available peptides including a set originally prepared for candidate hydroxylases from Pseudomonas spp., that are potential homologues of the human HIF prolyl-hydroxylases. […] MS-fragmentation analyses, unexpectedly, implied that the predicted hydroxylation occurred at the arginine-residue (Arg-12) at the -3position relative to the C-terminus of the substrate peptide (data not shown). This proposal was supported by ‘alanine scanning’ analyses hydroxylation was assessed for peptides in which substitution of alanine at every position in turn of RLLPAVSEATIRRL. […] We then employed NMR to investigate the regiochemistry of arginine-hydroxylation, employing an octameric peptide (AVSEATIR) containing a single arginine residue to simplify the analyses. This octameric peptide is set out in SEQ ID NO: 12. […] This contrasts with nitric oxide synthase which catalyses hydroxylation of L-arginine to give citrulline and nitric oxide via an Nω-hydroxyarginine intermediate.

YcfD [2] = target: T1, YcfD
YcfD [3] = target: T1, YcfD; experiment: Hydroxylation assay by MALDI-TOF MS (peptide substrates, +16 Da mass shift); details: for % hydroxylation (+16 Da): peptide substrate incubated with YcfD, +16Da mass shift on products
Protocol: Assay mixtures (final volume 100 μL in 50 mM Tris-HCl, pH 7.5) contained: enzyme (10 μM), substrate (100 μM), 2OG (160 μM), Fe(II) (200 μM) and ascorbate (2 mM). The reaction mixture was incubated at 37° C. for 30 minutes. The reaction mixture was then placed on ice, 10 μl of 1% formic acid was added to quench the reaction, and the mixture was centrifuged to separate any insoluble material that precipitated during quenching. The resultant soluble mixture (1 μl) and α-cyano-4-hydroxycinnamic acid (CHCA) matrix solution (1 μl) (LaserBio Labs) were double spotted onto a 96 well MALDI sample plate, and when dry analysed using MALDI-TOF MS on a Waters Micromass™ MALDI micro MX™ mass spectrometer in negative ion reflectron mode.
as §1
Based on the identified peptide substrates for YcfD, we searched the E. coli genome for potential substrates and made a set of peptides. Screening for YcfD activity identified a number of further potential substrate sequences as observed by a +16Da mass shift on products. Examples of the peptide substrates are set out in the Table below.

Molecule	% hydroxylation (+16 Da) (YcfD [3]) [%]	also measured
CC(=O)N[C@@H](CCCNC(=N)N)C(=O)O [N-α-acetyl-L-arginine]		hydroxylation by YcfD observed by 1H NMR (YcfD [1]): No hydroxylation
O=C(O)CNC(=O)c1nc(Cl)c2ccccc2c1O [FG2216]		inhibition of YcfD argininyl hydroxylase activity (YcfD [2]): inhibitory
KHVQALDLSMRFR [synthetic peptide, protein origin Nicotinate-nucleotide diphosphorylase]	30	
AVSEATIR [octameric peptide containing a single arginine residue]		position of hydroxylation (YcfD [1]; 2D-NMR after incubation with YcfD and HPLC purification): at C-3 of the hydroxylated arginine-residue
VEALKERFQASLRD [synthetic peptide, protein origin Phenylalanyl-tRNA synthetase]	40	
KLLRLFFPLSLRV [synthetic peptide, protein origin PhoQ]	60	
O=C(O)c1ccnc(C(=O)O)c1 [pyridine-2,4-dicarboxylic acid]		inhibition of YcfD argininyl hydroxylase activity (YcfD [2]): inhibitory
ELNREQKWQMMLSKSMRR [synthetic peptide, protein origin CaiF]	40	
KTPLAVLQSTLRS [synthetic peptide, protein origin PhoQ]	95	
RLLPAVSEATIRRL [14-residue synthetic peptide originally prepared for candidate hydroxylases from Pseudomonas spp; YcfD substrate]		hydroxylation by YcfD (+16Da mass shift) (YcfD [3]; MS based assay, Fe(II) and 2OG dependent): gave a +16Da mass shift
O=C(O)/C=C/C(=O)O [fumarate]		inhibition of YcfD argininyl hydroxylase activity (YcfD [2]): inhibitory
VAKCVEALKERFQASLRD [synthetic peptide, protein origin PheT]	50	
O=C(O)c1cccc(C(=O)O)n1 [pyridine-2,6-dicarboxylic acid]		enhancement of YcfD activity (YcfD [2]): Enhancers of YcfD activity
AQYPQEVITTVRG [synthetic peptide, protein origin PhoP]	60	
O=C(O)c1c[nH]c2c(ccc3cccnc32)c1=O [FG0041]		inhibition of YcfD argininyl hydroxylase activity (YcfD [2]): inhibitory
O=C(O)CNC(=O)C(=O)O [N-oxalylglycine]		inhibition of YcfD argininyl hydroxylase activity (YcfD [2]): inhibitory
KTPLAVLQSTLRSLR [synthetic peptide, protein origin PhoQ]	40	
LTELNREQKWQMMLSKSMRR [synthetic peptide, protein origin CaiF]	40	
ATVAKCVEALKERFQASLRD [synthetic peptide, protein origin PheT]	40	
O=C(O)c1ccc(C(=O)O)nc1 [pyridine-2,5-dicarboxylic acid]		enhancement of YcfD activity (YcfD [2]): Enhancers of YcfD activity
O=C(O)CCC(=O)O [succinate]		inhibition of YcfD argininyl hydroxylase activity (YcfD [2]): inhibitory
NTHRGMGYSLRGL [synthetic peptide, protein origin CreB]	30	
O=c1c(-c2ccc(O)cc2)coc2cc(O)cc(O)c12 [genistein]		inhibition of YcfD argininyl hydroxylase activity (YcfD [2]): inhibitory
KWQMMLSKSMRR [synthetic peptide, protein origin CaiF]	30	
LLRLFFPLSLRV [synthetic peptide, protein origin PhoQ]	50	
N=C(N)NCCC[C@H](N)C(=O)O [L-arginine]		hydroxylation by YcfD observed by 1H NMR (YcfD [1]): No hydroxylation
LTHSLKTPLAVLQSTLRS [synthetic peptide, protein origin PhoQ]	90	
LAVLQSTLRSLRS [synthetic peptide, protein origin PhoQ]	60	
